Reference: patent US6451528B1, “Sperm-specific AKAP protein genes and uses” (Oregon Health & Sciences University, priority 1999, dated 2002)

Target: T1, RIIα binding to AKAP110 (Mus musculus, UniProt P12367)
T1 construct: made in house; host or cells: E. coli
Assay: RII overlay binding assay with 32P-labeled RIIα
Conditions: peptide included in the binding assay at a concentration of 1 μM; results in FIG. 4D
Protocol: The identity of AKAP110 in the extracts prepared as described above was determine using an RII overlay assay. This assay was based on previous experiments which had shown that PKA anchoring proteins could be specifically detected after electrophoretic separation by overlay with labeled RII subunit of mammalian PKA (see Vijayaraghavan et al., 1997, J. Biol. Chem. 272; 4747-4752). These assays were performed as follows. Polyacrylamide gel electrophoresis containing sodium dodecyl sulfate (SDS/PAGE) was performed as described in Johnson et al. (1997, Devel. Biol. 192: 340-350) and Visconti et al. (1997, Devel. Biol. 192: 351-363). Approximately […] protein per lane was loaded on a 10% gel and electrophoresed overnight at a constant current of 8mA. After electrophoresis, protein bands were transferred to Immobilon P (polyvinylidene difluoride, obtained from Millipore, Bedford, Mass.) as described in the Johnson and Visconti references. […]
The conserved regions of sequence are expected to correspond to functional domains. The portion of the sequence corresponding to the RII binding domain was determined using an RII overlay assay as follows. […] This blot was then hybridized with ^32P-labeled RIIα (results shown in FIG. 4A) or with horse radish peroxidase-conjugated S-protein that detects an S-tag expressed as a fusion protein by the pET30A vector (results shown in FIG. 4B). […]

T1 sequence (P12367 2-401 limits assumed): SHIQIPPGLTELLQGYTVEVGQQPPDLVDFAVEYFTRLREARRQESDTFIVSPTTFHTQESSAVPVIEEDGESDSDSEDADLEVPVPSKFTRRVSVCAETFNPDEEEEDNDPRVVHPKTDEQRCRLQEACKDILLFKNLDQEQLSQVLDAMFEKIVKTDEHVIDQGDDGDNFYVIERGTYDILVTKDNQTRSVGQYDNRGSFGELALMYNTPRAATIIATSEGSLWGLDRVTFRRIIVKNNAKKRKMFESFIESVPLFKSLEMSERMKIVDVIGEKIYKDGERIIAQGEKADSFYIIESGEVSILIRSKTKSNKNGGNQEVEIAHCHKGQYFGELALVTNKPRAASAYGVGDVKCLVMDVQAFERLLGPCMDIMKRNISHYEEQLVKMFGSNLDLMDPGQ

- radiolabeled RIIα binding: prevent radiolabeled RIIα binding
Sequence: SFYANRLTNLVI (listed as Mus musculus)
